Source: the supplement of paper PMC11246515
± gives the standard deviation of the averaged measurements.

Assay: total protein half-life in vivo (active degradation + dilution); higher = more stable protein
[1] = E. coli NCM3722 delta-clpP delta-lon delta-hslV, growth: N-lim chemostat, doubling time 6 h
[2] = E. coli NCM3722 delta-clpP, growth: N-lim chemostat, doubling time 6 h
[3] = E. coli NCM3722 delta-hslV, growth: N-lim chemostat, doubling time 6 h
[4] = E. coli NCM3722 delta-lon, growth: N-lim chemostat, doubling time 6 h
[5] = E. coli NCM3722 delta-smpB, growth: N-lim chemostat, doubling time 6 h
[6] = wild type E. coli NCM3722, growth: C-lim chemostat, doubling time 3 h
[7] = wild type E. coli NCM3722, growth: C-lim chemostat, doubling time 6 h
[8] = wild type E. coli NCM3722, growth: C-lim chemostat, doubling time 12 h
[9] = wild type E. coli NCM3722, growth: N-lim chemostat, doubling time 6 h
[10] = wild type E. coli NCM3722, growth: N-lim chemostat, doubling time 12 h
[11] = wild type E. coli NCM3722, growth: P-lim chemostat, doubling time 6 h
[12] = wild type E. coli NCM3722, growth: P-lim chemostat, doubling time 12 h

| Sequence | total protein half-life in vivo [1] | total protein half-life in vivo [2] | total protein half-life in vivo [3] | total protein half-life in vivo [4] | total protein half-life in vivo [5] | total protein half-life in vivo [6] | total protein half-life in vivo [7] | total protein half-life in vivo [8] | total protein half-life in vivo [9] | total protein half-life in vivo [10] | total protein half-life in vivo [11] | total protein half-life in vivo [12] |
| --- | --- | --- | --- | --- | --- | --- | --- | --- | --- | --- | --- | --- |
| MSDNDTIVAQATPPGRGGVGILRISGFKAREVAETVLGKLPKPRYADYLPFKDADGSVLDQGIALWFPGPNSFTGEDVLELQGHGGPVILDLLLKRILTIPGLRIARPGEFSERAFLNDKLDLAQAEAIADLIDASSEQAARSALNSLQGAFSARVNHLVEALTHLRIYVEAAIDFPDEEIDFLSDGKIEAQLNDVIADLDAVRAEARQGSLLREGMKVVIAGRPNAGKSSLLNALAGREAAIVTDIAGTTRDVLREHIHIDGMPLHIIDTAGLREASDEVERIGIERAWQEIEQADRVLFMVDGTTTDAVDPAEIWPEFIARLPAKLPITVVRNKADITGETLGMSEVNGHALIRLSARTGEGVDVLRNHLKQSMGFDTNMEGGFLARRRHLQALEQAAEHLQQGKAQLLGAWAGELLAEELRLAQQNLSEITGEFTSDDLLGRIFSSFCIGK | 5.13 ± 0.69 h | 5.57 ± 0.62 h | 4.91 ± 0.24 h | 5.72 ± 0.4 h | 4.68 ± 0.25 h | 3.43 ± 0.63 h | 5.46 ± 0.16 h | 10.2 ± 5 h | 5.14 ± 0.12 h | 8.32 ± 0.99 h | 5.69 ± 0.32 h | 11.7 ± 0.24 h |
| MSDNLPWKTWTPDDLAPPQAEFVPIVEPEETIIEEAEPSLEQQLAQLQMQAHEQGYQAGIAEGRQQGHKQGYQEGLAQGLEQGLAEAKSQQAPIHARMQQLVSEFQTTLDALDSVIASRLMQMALEAARQVIGQTPTVDNSALIKQIQQLLQQEPLFSGKPQLRVHPDDLQRVDDMLGATLSLHGWRLRGDPTLHPGGCKVSADEGDLDASVATRWQELCRLAAPGVV |  |  |  |  |  | 2.19 ± 0.17 h | 3.64 ± 0.27 h | 5.33 ± 0.28 h |  |  |  |  |
| MSDQIIARVSQSLAKEQSLESLVRQLLEMLEMVTDMESTYLTKVDVEARLQHIMFARNSQKMYIPENFTVSWDYSLCKRAIDENCFFSDEVPDRWGDCIAARNLGITTFLSTPIHLPDGSFYGTLCAASSEKRQWSERAEQVLQLFAGLIAQYIQKEALVEQLREANAALIAQSYTDSLTGLPNRRAIFENLTTLFSLARHLNHKIMIAFIDLDNFKLINDRFGHNSGDLFLIQVGERLNTLQQNGEVIGRLGGDEFLVVSLNNENADISSLRERIQQQIRGEYHLGDVDLYYPGASLGIVEVDPETTDADSALHAADIAMYQEKKHKQKTPFVAHPALHS |  |  |  |  |  | 0.233 h |  |  |  |  |  |  |
| MSDQQQPPVYKIALGIEYDGSKYYGWQRQNEVRSVQEKLEKALSQVANEPITVFCAGRTDAGVHGTGQVVHFETTALRKDAAWTLGVNANLPGDIAVRWVKTVPDDFHARFSATARRYRYIIYNHRLRPAVLSKGVTHFYEPLDAERMHRAAQCLLGENDFTSFRAVQCQSRTPWRNVMHINVTRHGPYVVVDIKANAFVHHMVRNIVGSLMEVGAHNQPESWIAELLAAKDRTLAAATAKAEGLYLVAVDYPDRYDLPKPPMGPLFLAD | 5.48 ± 0.18 h | 4.85 ± 0.48 h | 3.92 h | 5.08 ± 0.086 h | 5.64 ± 0.47 h |  |  | 11.8 ± 2.3 h | 5.31 ± 0.53 h | 8.71 ± 1.2 h | 5.81 ± 0.58 h | 11.6 ± 0.43 h |
| MSDTKRNTIGKFGLLSLTFAAVYSFNNVINNNIELGLASAPMFFLATIFYFIPFCLIIAEFVSLNKNSEAGVYAWVKSSLGGRWAFITAYTYWFVNLFFFTSLLPRVIAYASYAFLGYEYIMTPVATTIISMVLFAFSTWVSTNGAKMLGPITSVTSTLMLLLTLSYILLAGTALVGGVQPADAITVDAMIPNFNWAFLGVTTWIFMAAGGAESVAVYVNDVKGGSKSFVKVIILAGIFIGVLYSVSSVLINVFVSSKELKFTGGSVQVFHGMAAYFGLPEALMNRFVGLVSFTAMFGSLLMWTATPVKIFFSEIPEGIFGKKTVELNENGVPARAAWIQFLIVIPLMIIPMLGSNTVQDLMNTIINMTAAASMLPPLFIMLAYLNLRAKLDHLPRDFRMGSRRTGIIVVSMLIAIFAVGFVASTFPTGANILTIIFYNVGGIVIFLGFAWWKYSKYIKGLTAEERHIEATPASNVD |  |  |  |  |  |  | 3.83 h |  |  |  |  |  |
| MSEALLNAGRQTLMLELQEASRLPERLGDDFVRAANIILHCEGKVVVSGIGKSGHIGKKIAATLASTGTPAFFVHPAEALHGDLGMIESRDVMLFISYSGGAKELDLIIPRLEDKSIALLAMTGKPTSPLGLAAKAVLDISVEREACPMHLAPTSSTVNTLMMGDALAMAVMQARGFNEEDFARSHPAGALGARLLNKVHHLMRRDDAIPQVALTASVMDAMLELSRTGLGLVAVCDAQQQVQGVFTDGDLRRWLVGGGALTTPVNEAMTVGGTTLQSQSRAIDAKEILMKRKITAAPVVDENGKLTGAINLQDFYQAGII | 5.02 ± 0.39 h | 4.77 ± 0.57 h | 4.52 ± 0.3 h | 4.85 ± 0.39 h | 4.33 ± 0.28 h | 3.14 ± 0.043 h | 5.34 ± 0.49 h | 9.87 ± 2.3 h | 4.55 ± 0.18 h | 7.014 ± 0.018 h | 5.2 ± 0.36 h | 12.3 ± 0.49 h |
| MSEFDAQRVAERIDIVLDILVAGDYHSAIHNLEILKAELLRQVAESTPDIPKAPWEI [A5A614] | > 8 h |  |  |  | 2.71 h |  | 3.77 ± 0.23 h |  |  |  | 3.58 h |  |
| MSEFSQTVPELVAWARKNDFSISLPVDRLSFLLAVATLNGERLDGEMSEGELVDAFRHVSDAFEQTSETIGVRANNAINDMVRQRLLNRFTSEQAEGNAIYRLTPLGIGITDYYIRQREFSTLRLSMQLSIVAGELKRAADAAEEGGDEFHWHRNVYAPLKYSVAEIFDSIDLTQRLMDEQQQQVKDDIAQLLNKDWRAAISSCELLLSETSGTLRELQDTLEAAGDKLQANLLRIQDATMTHDDLHFVDRLVFDLQSKLDRIISWGQQSIDLWIGYDRHVHKFIRTAIDMDKNRVFAQRLRQSVQTYFDEPWALTYANADRLLDMRDEEMALRDEEVTGELPEDLEYEEFNEIREQLAAIIEEQLAVYKTRQVPLDLGLVVREYLSQYPRARHFDVARIVIDQAVRLGVAQADFTGLPAKWQPINDYGAKVQAHVIDKY | 5.86 ± 0.58 h | 6.12 ± 0.39 h | 5.79 ± 0.81 h | 5.07 ± 0.54 h | 5.246 ± 0.022 h | 3.2 ± 0.06 h | 5.42 ± 0.67 h | 9.64 ± 0.19 h | 5.36 ± 0.55 h | 7.76 ± 0.8 h | 5.7 ± 0.13 h | 8.345 ± 0.032 h |
| MSEGWNIAVLGATGAVGEALLETLAERQFPVGEIYALARNESAGEQLRFGGKTITVQDAAEFDWTQAQLAFFVAGKEATAAWVEEATNSGCLVIDSSGLFALEPDVPLVVPEVNPFVLTDYRNRNVIAVPDSLTSQLLAALKPLIDQGGLSRISVTSLISASAQGKKAVDALAGQSAKLLNGIPIDEEDFFGRQLAFNMLPLLPDSEGSVREERRIVDEVRKILQDEGLMISASVVQAPVFYGHAQMVNFEALRPLAAEEARDAFVQGEDIVLSEENEFPTQVGDASGTPHLSVGCVRNDYGMPEQVQFWSVADNVRFGGALMAVKIAEKLVQEYLY | 5.37 ± 0.42 h | 4.6 ± 0.02 h | 4.6 ± 0.11 h | 4.9 ± 0.73 h | 4.57 ± 0.048 h | 3.02 ± 0.082 h | 5.614 ± 0.008 h | 9.85 ± 0.24 h | 5.14 ± 0.59 h | 8.99 ± 1.9 h | 6.16 ± 0.097 h | 11.9 ± 0.28 h |
